Results reported in patent US20240327534A1 (HARPOON THERAPEUTICS, published 2024).
Residue numbers refer to the chain shown, from its start.

T1: human BCMA on BCMA expressing cell lines (human, UniProt Q02223 1-184)
T1 sequence: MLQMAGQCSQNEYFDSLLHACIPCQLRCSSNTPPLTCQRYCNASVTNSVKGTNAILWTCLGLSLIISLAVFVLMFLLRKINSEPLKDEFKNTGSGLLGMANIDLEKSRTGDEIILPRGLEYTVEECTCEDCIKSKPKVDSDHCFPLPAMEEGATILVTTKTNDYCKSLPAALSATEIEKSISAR

T2: human BCMA protein (human, UniProt Q02223 1-54, limits assumed)
T2 sequence: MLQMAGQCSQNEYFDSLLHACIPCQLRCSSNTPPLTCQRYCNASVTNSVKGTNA

B1: BCMA targeting trispecific protein 01G10 (other, not shown: large carriers; small tags and cut ends)
VHH: EVQLVESGGGLVQPGRSLTLSCAASTNEFSISPMGWYRQAPGKQRELVAAIHGLSTLYADSVKGRFTISRDNAKNSIYLQMNSLRPEDTALYYCNKVPWGAYHPRNVYWGQGTQVTVSS
notes: trispecific
B2: BCMA targeting trispecific protein 02A08 (other, not shown: large carriers; small tags and cut ends)
VHH: B1 VHH with E28I, I31R, L54E, A101R, R105G
notes: trispecific
B3: BCMA targeting trispecific protein 02A11 (other)
VHH: B1 VHH with E28H, L54S, A101D, N106V
notes: trispecific; also called 02All; not shown: the C-terminal 6xHis tag follows those domains and is left out
B4: BCMA targeting trispecific protein 02B12 (other, not shown: large carriers; small tags and cut ends)
VHH: B1 VHH with E28I, F29S, L54F, S55D, A101D
notes: trispecific
B5: BCMA targeting trispecific protein 02H09 (other, not shown: large carriers; small tags and cut ends)
VHH: B1 VHH with E28I, I31R, L54S, A101D, R105G
notes: trispecific
B6: BCMA targeting trispecific protein 02E09 (other, not shown: large carriers; small tags and cut ends)
VHH: B1 VHH with E28D, L54G, A101D, Y108A
notes: trispecific
B7: BCMA targeting trispecific protein 02G08 (other, not shown: large carriers; small tags and cut ends)
VHH: B1 VHH with E28I, F29D, L54E, A101D, Y108T
notes: trispecific
B8: BCMA targeting trispecific protein 02G11 (other, not shown: large carriers; small tags and cut ends)
VHH: B1 VHH with E28I, F29D, L54S, A101D, Y108T
notes: trispecific
B9: BCMA targeting trispecific protein 02F06 (other, not shown: large carriers; small tags and cut ends)
VHH: B1 VHH with E28I, S32T, L54E, A101R
notes: trispecific
B10: BCMA targeting trispecific protein 02F07 (other)
VHH: B1 VHH with E28I, F29E, L54F, A101D, R105G
notes: trispecific; not shown: the C-terminal His6 follows those missing domains and is left out
B11: BCMA targeting trispecific protein 02F05 (other, not shown: large carriers; small tags and cut ends)
VHH: B1 VHH with E28I, I31V, L54N, A101K
notes: trispecific
B12: BCMA targeting trispecific protein 02A05 (other, not shown: large carriers; small tags and cut ends)
VHH: B1 VHH with E28I, F29A, L54K, A101D, R105G
notes: trispecific
B13: BCMA targeting trispecific protein 02D06 (other, not shown: large carriers; small tags and cut ends)
VHH: B1 VHH with E28I, F29S, L54F, L57V, A101R
notes: trispecific
B14: BCMA targeting trispecific protein 01H05 (other, not shown: large carriers; small tags and cut ends)
VHH: B1 VHH with E28I, S32T, L54T, A101R
notes: trispecific
B15: BCMA targeting trispecific protein 02H06 (other)
VHH: B1 VHH with E28I, F29R, L54S, A101D, Y108V
notes: trispecific; not shown: The C-terminal 6xHis tag is left out because it follows these missing domains
B16: BCMA targeting trispecific protein 02G01 (other)
VHH: B1 VHH with E28I, S32N, L54F, S55D, A101D, Y108S
notes: trispecific; not shown: the C-terminal 6xHis tag follows those missing domains and is left out
B17: BCMA targeting trispecific protein 02E03 (other)
VHH: B1 VHH with E28I, I31N, L54P, A101D, Y108T
notes: trispecific; not shown: anti-albumin domain, anti-CD3 domain and the linkers of the trispecific (TriTAC) chain; the C-terminal 6xHis tag follows these missing domains and is left out
B18: BCMA targeting trispecific protein 02G05 (other, not shown: large carriers; small tags and cut ends)
VHH: B1 VHH with E28I, F29T, L54N, A101D, R105G
notes: trispecific
B19: BCMA targeting trispecific protein 02B01 (other, not shown: large carriers; small tags and cut ends)
VHH: B1 VHH with E28I, I31N, L54R, A101D, Y108M
notes: trispecific
B20: BCMA targeting trispecific protein 01G11 (other, not shown: large carriers; small tags and cut ends)
VHH: B1 VHH with E28I, F29P, L54A, A101D, Y108A
notes: trispecific
B21: BCMA targeting trispecific protein 02C06 (other, not shown: large carriers; small tags and cut ends)
VHH: B1 VHH with E28I, I31T, L54T, A101D, R105G
notes: trispecific
B22: BCMA targeting trispecific protein 02F03 (other, not shown: large carriers; small tags and cut ends)
VHH: B1 VHH with E28I, S32Y, L54S, A101D, R105K
notes: trispecific
B23: BCMA targeting trispecific protein 02B11 (other)
VHH: B1 VHH with E28I, F29V, L54D, A101D, Y108S
notes: trispecific; not shown: anti-albumin domain, anti-CD3 domain and the linkers of the trispecific (TriTAC) format
B24: BCMA targeting trispecific protein 01H10 (other)
VHH: B1 VHH with E28I, F29P, L54E, A101D
notes: as for B15
B25: BCMA targeting trispecific protein 02C05 (other)
VHH: B1 VHH with E28I, I31E, L54F, S55T, A101D, Y108T
notes: as for B17
B26: BCMA targeting trispecific protein 02A04 (other)
VHH: B1 VHH with E28I, I31Q, L54K, A101D, R105S, Q111K
notes: as for B15
B27: BCMA targeting trispecific protein 02F11 (other)
VHH: B1 VHH with E28I, I31T, L54T, A101D, Y108Q
notes: as for B23
B28: BCMA targeting trispecific protein 02D11 (other)
VHH: B1 VHH with L54E, A101D, R105G
notes: as for B10
B29: BCMA targeting trispecific protein 01H01 (other, not shown: large carriers; small tags and cut ends)
VHH: B1 VHH with E28I, F29G, L54Q, A101D, R105Q
notes: trispecific
B30: BCMA targeting trispecific protein 02B04 (other)
VHH: B1 VHH with E28I, I31T, L54F, L57I, A101D, R105L
notes: as for B16
B31: BCMA targeting trispecific protein 02G07 (other, not shown: large carriers; small tags and cut ends)
VHH: B1 VHH with E28I, S32T, L54E, A101D, N106D
notes: trispecific
B32: BCMA targeting trispecific protein 02C03 (other)
VHH: B1 VHH with E28I, F29A, L54S, A101D, R105G
notes: as for B10
B33: BCMA targeting trispecific protein 02C01 (other)
VHH: B1 VHH with E28I, F29I, L54A, A101D, R105G
notes: trispecific; not shown: anti-albumin domain, anti-CD3 domain and the linkers of the trispecific; the C-terminal His6 that follows them is left out
B34: BCMA targeting trispecific protein 01H09 (other)
VHH: B1 VHH with E28I, F29M, L54N, A101D, R105G
notes: as for B10
B35: BCMA targeting trispecific protein 02H01 (other, not shown: large carriers; small tags and cut ends)
VHH: B1 VHH with E28I, I31K, L54S, A101D
notes: trispecific
B36: BCMA targeting trispecific protein 02B07 (other)
VHH: B1 VHH with E28I, I31S, L54H, A101D, Y108T
notes: as for B23
B37: BCMA targeting trispecific protein 02G09 (other)
VHH: B1 VHH with E28I, I31D, L54F, A101D, Y108A
notes: as for B15
B38: BCMA targeting trispecific protein 02F12 (other, not shown: large carriers; small tags and cut ends)
VHH: B1 VHH with E28I, F29E, L54T, A101D, R105G
notes: trispecific
B39: BCMA targeting trispecific protein 02H04 (other)
VHH: B1 VHH with E28I, I31V, L54N, A101D
notes: trispecific; not shown: the C-terminal 6xHis tag follows those domains and is left out
B40: BCMA targeting trispecific protein 02A07 (other, not shown: large carriers; small tags and cut ends)
VHH: B1 VHH with E28I, I31K, L54N, A101D, N106E
notes: trispecific
B41: BCMA targeting trispecific protein 01H04 (other)
VHH: B1 VHH with E28I, I31K, L54Q, A101D, Y108T
notes: as for B23
B42: BCMA targeting trispecific protein 02H05 (other)
VHH: B1 VHH with E28Q, L54K, A101D, Y108V
notes: as for B15
B43: BCMA targeting trispecific protein 01H11 (other, not shown: large carriers; small tags and cut ends)
VHH: B1 VHH with A23V, E28I, I31T, L54F, A101D, R105G
notes: trispecific
B44: BCMA targeting trispecific protein 02G06 (other, not shown: large carriers; small tags and cut ends)
VHH: B1 VHH with E28I, I31G, L54N, A101D, R105G
notes: trispecific

target: T1, human BCMA on BCMA expressing cell lines; assay: cell-based or functional assay

Binder | TDCC EC50 (EJM cells) [pM]
B1 | 143
B2 | 20.1
B3 | 60.6
B4 | 124
B5 | 2.88
B6 | 31.1
B7 | 28.6
B8 | 23.8
B9 | 19.3
B10 | 2.59
B11 | 3
B12 | 4.21
B13 | 42.8
B14 | 45.4
B15 | 31.9
B16 | 10.8
B17 | 16.5
B18 | 4.33
B19 | 51.8
B20 | 3.98
B21 | 1.95
B22 | 24.5

Binder | TDCC EC50 (EJM cells) [pM]
B23 | 14.4
B24 | 35.2
B25 | 16.2
B26 | 38.2
B27 | 15.2
B28 | 2.35
B29 | 118
B30 | 11.3
B31 | 44.6
B32 | 2.52
B33 | 1.55
B34 | 2.21
B35 | 54.2
B36 | 14.2
B37 | 39.6
B38 | 3.14
B39 | 59.9
B40 | 27.9
B41 | 14.7
B42 | 38.9
B43 | 3.17
B44 | 3.39

target: T2, human BCMA protein; assay: affinity to human BCMA protein, method not stated

Binder | Kd [nM]
B1 | 41.9
B2 | 9.51
B3 | 25.2
B4 | 25.2
B5 | 6.83
B6 | 20.9
B7 | 18
B8 | 20.5
B9 | 21.9
B10 | 7.06
B11 | 7.15
B12 | 7.06
B13 | 23.3
B14 | 27.4
B15 | 23.3
B16 | 16.3
B17 | 16.8
B18 | 7.12
B19 | 21.4
B20 | 9.7
B21 | 6.9
B22 | 25.7

Binder | Kd [nM]
B23 | 13.3
B24 | 24.8
B25 | 15.6
B26 | 17.6
B27 | 20
B28 | 6.71
B29 | 35.9
B30 | 15.2
B31 | 19.3
B32 | 7.09
B33 | 5.31
B34 | 5.44
B35 | 35.6
B36 | 15.8
B37 | 34.4
B38 | 7.76
B39 | 31.1
B40 | 18.4
B41 | 17.4
B42 | 19.6
B43 | 7.06
B44 | 7.5
